Source: a protein production outcome set (Wang et al. 2014)

Assay: label from the status in PepcDB records

Sequence	protein production
MKFVQERRLTVKTTFSKEYKIFIFGLLISRIGDSLYTFALPWIAYQLTGSAVIMGSLFAVNVLPIVLFGPLVGVLVDRYDRKKLLWMADIINIILVSLVPILHALHLLEVWHLYVITFILAVMSMLFDVTTVTVIPHIAGASLTKANSLYQMVNQLASLFGPIIAGLFISFIGGFQVLWINVLSFIATLIAVIILPSMKNLNKKNTDKKTLQNVLNDLFDGFKWLINDRLNIALSLQAMVGNFGASAVLGVLMYYLLSTLNLTSAQSGYNYTLIGIGGLLGSLIAVPLEKKFRRGILIPLLLFFGALGLTFALWSTYWLAPGIAFGIAMTCNITWNTIVTSIRQETVPSNLQGRVLGFSRVLTRLSMPLGALVGGIISAYNPVFIFALAAFTKIIEVFIALCSPIRKL	failed
MKFYTILSILFISFMLSACAVLQKSSPLQENKDFYILDTHTQKKISFEDMILELLKADVILLGEKHDEVKHKISQVMIFNALEGNLSSQNINFDVALEMLASTEQNHLDKAFKNKKTIKANELTNALNWDKVWKWKDYEQFVNVVFYSKSKILGANLSRSEITSIYNGAQPLKGYVSTTNEVKKQLFDIISLSHKLNPEENKELLDKLVEIQQFKDRRMADVLVHHVNKVLLLAGSYHTSKKIGIPLHIQDFKSSKKIVVVNLSYGEIDLKDSDYVLIYKGEELEHHHHHH	failed
MKGENMMVKLIALYEQPEDKQAFDEHYFNTHAPLTRKIPGLRDMKVTRIVGSPMGESKFYLMCEMYYDDHESLQQAMRTDEGKASGKDAMKFAGKLLTLMIGEEMDE	not failed
MKGFIDDANYSVGLLDEGTNLGNVIDNYVYEHTLTGKNAFFVGDLGKIVKKHSQWQTVVAQIKPFYTVKCNSTPAVLEILAALGTGFACSSKNEMALVQELGVSPENIIFTSPCKQVSQIKYAAKVGVNIMTCDNEIELKKIARNHPNAKVLLHIATEDNIGGEDGNMKFGTTLKNCRHLLECAKELDVQIIGVKFHVSSACKEYQVYVHALSDARCVFDMAGEFGFTMNMLDIGGGFTGTEIQLEEVNHVISPLLDIYFPEGSGIQIISEPGSYYVSSAFTLAVNIIAKKVVENDKFSSGVEKNGSDEPAFVYYMNDGVYGSFASKLSEDLNTIPEVHKKYKEDEPLFTSSLWGPSCDELDQIVESCLLPELNVGDWLIFDNMGADSFHEPSAFNDFQRPAIYFMMSFSDWYEMQDAGITSDAMMKNFFFAPSCIQLSQEDSFSTEA	not failed
MKGFNIYTDESTLVSIGDDAGVYEHNGIIWVYTVDIITPVVNDPYLWGAISTANALSDVYAMGGIPVNALAISCFNNCELDIEIFREVIRGALDKLREAKTVLLGGHTIDDKEPKFGLSVAGICPEGKYITQSGAQVGQLLILTKPIGTGILIKGLKEGILKEEDINEAIENMLALNDKARNLMLSLDATACTDVTGFGLLGHAWNICKNSNIGARIFFEKVPYYQLSENLVKKKIYPKGAIENLNFVKNYLKSNLDNWKLILLSDPVTSGGLLFTINKEKLEKIDETAKELEVNYWIIGETIAENVLEVL	not failed
MKGHIRERSPGHWAIVLDVGEVDPKTGKKKRKWHSFTGTKREAQKECSRLITVLDQGLYVEPTKQTVAEFLNEWLAFVKPSVAPKTHERYTEICRKGLSPLIGNVILSKLKTDRIDAAFTTALTAPRVDHRTKKDQREPLPPLAPRTVHHYRRVLVKALGQAVTWERLSRNPATATTPPKVERQKMLAYDVGQTATLLETLRPTRMFVPVLLAVTCGLRRGEILALRWRHLELGDNRRQMSIEESAEQTADGVRYKEPKSGRARTVALSASTVAELKAHRARQAEEQLRLGIRPDADSFVVAQVDGQPLQPRSLTHEWVRVLGKTSLPRIRFHDLRHTHATQMLSAGVHPKIASERLGHSNIGITLDLYSHVMPGMQADAAEQVDVALQAAISSERKGK	failed
MKGIMVQGTASDVGKSLICTALCRIFARRGYKVTPFKSQNMSNNSYITVEGLEIGRAQGIQAEAAMEEASVYMNPILLKPRNDREAEIVCFGQAVDTVSGVKYRDGFYKRGLEAIKQALATLSQSFDMVVIEGAGSPVEVNLNDRELVNMKVAELADVPVILVADIERGGVFASLYGTLELLQPNERKRVVGIIVNKFRGDPELFSSGVQWIEQHLGVPVLGVLPHLPGVRIEGEDSLSKGQVTSVLPRDQSIDIAVLDLPYLSNYTDLEPFRYEEDVAIRFVSSVDALGRPDAIILPGTKSTFHDLQILKEKGFKERLHEYVTTDGTVVAICGGFQMLGHRLIDVAGSDTGIKGATIDGLDLAPVETRFAEKKKTVRSLGQLLHPFGTAKDIYGFEIHLGETDIVDPSIPAFLRVGNHTDGVYLHEGRLIGTYFHHLFFNDDFRSGWLNTLRRKKGLRERPTVELEKCRRASYDQLADEVERVLHVDSLLEKMERWGETSLEHHHHHH	not failed
MKGITSLGSKWFVEFEKNNVHNVYDRIAEHFTKTRYRIWPGVELFLKQTSPLDTVLDVGCGNGKNLISYRNLFCIGIDRCVPLVKTCKQRQLETAVADILELPFQSEKFDIVLCIAVLHHLCTRERRILAIQELGRVLRPGGSCLLYVWAANENDGKDEVKNTKAREKMRFLDENKQEALIPWVVIDHEKKATQLEKNLKQPSTFTLERYYHLYRQGELEEECLQSNCFHIQHSYYEQSNWCVVLDKKS	not failed
MKGKILDYSIQTSTGIIRAENQQRYSFSGSAWKEQQAPMRGMHVDFEIDAQDQVIDIFIDASDLEPAIQPSPTAVISDTVSKETHADNLSTSSDPLSSASLSHTHSQYSSSTDDQHQNLLANESKYSMMDWVMKCLRNYINFTGRARRKEYWFFQLWYAILSFVMLVLGDAFHWGDNLFLIATLLVALPAIAVSAHRLHDINRSGWLVLLNLVTIVGVLIVTFFFMIKEGDQTTNSYGPASK	failed
MKGKVVSYLAAKKYGFIQGDDGESYFLHFSELLDKKDEGKLVKGSMVHFDPTPTPKGLAAKAISLPLEHHHHHH	not failed
MKGLCSSDTRQYLPGHQLWEAPVQIRRYSAVIHHATKCQWGVIPSRTINVSLHQTRRMRVAAVGIGGAGGRIVERLWQDNERRETTYLGAACAVDTDTEALDELDALPADRRYAFGLSETNGTGTNGDRTSGTAAIEDERLEVRRAIDELVTSDIDAVVLVAGLAGGTGSGATAHIADALREVYSIPVYCLSVLPAGRDDDAAANTMQALRALESTVDGQILFDNEAWLGSGQTVESASETLNETIVARLGALFAAGEATAPDAVGQSVVDASEIINTLSDAGFTTLGYASQDLQTGAGSGDGTVIDQLKNRFLGDNADDVDEIEAYNAVETTLRRAVRGKLTAQCELDSADRALAVFAGPPAWLIRDAVTDGRRWLTEELQSPLEHHHHHH	failed
MKGNFHSTYDQGFARVAACTTTVHIGDPASNVAGILDTCRELSSRSVAIAVFPELCLTGYAIDDLLLQDVVLDAVLDAIETVRQASRSLFPVIIVGAPLQRGNRLYNCAVVIHRGQVLGVVPKSHLPNYREFYEKRHFAVGAGTTGMIDLSGRQKSHAASTEIPFGPDQLFRATDLPDLTFHVEVCEDLWVPVAPSSQAALAGAVVEVNLSGSPITVGKSRQRHELCKVTSSRNLQAYVYAAAGPGESSTDLSWDGQTMIYENGSLLAATDRFSPEPGYCLADIDLDLLRQERLRQGSFDDNALAQPAQAPWRTTIFTLDPPHDDIGLERPVNRFPFVPNDPDQLAQDCYEAYNIQVYGLRRRLESMGSPKIVIGVSGGLDSTHALLVAAKAMDQMGRPRTDILAFTMPGFATTDHTKNNALDMCRALGIPCEVLDIRPAATQMLKGMSHPAGDGAEVYDVTFENVQAGLRYDYLFRIANQRGGIVLGTGDLSELALGWCTFGVGDQMSHYGVNTGVPKTLIQHLIRWCISSGQFNEATNVVLESVLGTEISPELVPARPGEKIQSTQAKIGPYELQDFTLYHLLRHGMRPSRIIFLSHHAWRDASVGSWPPGFRDEDRHSYDLSAIKDWTRLFLRRFVGNQFKRSTLPNGPKVVAGGSLSPRGDWRMPSDAVVRAWLDDLETVPDERF	failed
MKGTKKLAWLGLLLVLPVLAQATTVTYSALTVRELGNFLMNLPTGFYAIAPAAAKNMMDTVDVFILDVREPNEFAGERIQGAVNIPIRDLPKRVGELPKGKPIIVYCKVGHRGSMAMMFLRGQGYNVQSISGGLDGWKNAGLPVVK	failed
MKGTNTIYIIISSILLAYIMQIFVLYPFTAVAIGIPLGLLSRKYSAIGGFLIGFLSSLSLYLIYPINAVSKIAEIIGQLIGINPFLVVLLYPLIYGTISLISALLFYYIVRLNK	failed
MKHCLKFALLAGFALLLTACGFHLRGLGGSLKPLPFSTMYLEATGKSIEADLRTVFARDPKLSVMSEPKGAQAVVSVVSENQSKDILTINTGGRINEYQLTYTVVVRTVIGGVPVDPDMVVTVRRSLNYSDNQVLGKQQEEDLLWADARRDAAEQIVRRLAYLKVPAAPLAGPVSVKPDAVPQPLEHHHHHH	not failed
